The values below come from paper PMC6220978, “Induced conformational changes activate the peptidoglycan synthase PBP1B” (Molecular Microbiology, 2018).

Experiment in all cases: SPR; PBP1B versions immobilised to the chip surface; CpoB versions injected from either 3.9 nM to 2 μM or from 78 nM to 40 μM; apparent KD by non-linear regression, at least three independent experiments
What all share (details): both partners purified
(In general: In SPR one partner is held on a chip, and binding of the other changes the refractive index at the surface.)

Test [1] deals with T1, PBP1B (wild type, PBP1B^46-844) (E. coli, UniProt P02919 46-844).
T1 construct: PBP1B, E. coli, residues 46-844, encoded on pDML924; Immobilised on the SPR chip as in Egan et al. 2014 / Gray et al. 2015; also called WT PBP1B; WT; source: E. coli BL21(DE3), purified (membrane extract, HisTrap, thrombin, HiTrap SP ion exchange)
T1 sequence (looked up): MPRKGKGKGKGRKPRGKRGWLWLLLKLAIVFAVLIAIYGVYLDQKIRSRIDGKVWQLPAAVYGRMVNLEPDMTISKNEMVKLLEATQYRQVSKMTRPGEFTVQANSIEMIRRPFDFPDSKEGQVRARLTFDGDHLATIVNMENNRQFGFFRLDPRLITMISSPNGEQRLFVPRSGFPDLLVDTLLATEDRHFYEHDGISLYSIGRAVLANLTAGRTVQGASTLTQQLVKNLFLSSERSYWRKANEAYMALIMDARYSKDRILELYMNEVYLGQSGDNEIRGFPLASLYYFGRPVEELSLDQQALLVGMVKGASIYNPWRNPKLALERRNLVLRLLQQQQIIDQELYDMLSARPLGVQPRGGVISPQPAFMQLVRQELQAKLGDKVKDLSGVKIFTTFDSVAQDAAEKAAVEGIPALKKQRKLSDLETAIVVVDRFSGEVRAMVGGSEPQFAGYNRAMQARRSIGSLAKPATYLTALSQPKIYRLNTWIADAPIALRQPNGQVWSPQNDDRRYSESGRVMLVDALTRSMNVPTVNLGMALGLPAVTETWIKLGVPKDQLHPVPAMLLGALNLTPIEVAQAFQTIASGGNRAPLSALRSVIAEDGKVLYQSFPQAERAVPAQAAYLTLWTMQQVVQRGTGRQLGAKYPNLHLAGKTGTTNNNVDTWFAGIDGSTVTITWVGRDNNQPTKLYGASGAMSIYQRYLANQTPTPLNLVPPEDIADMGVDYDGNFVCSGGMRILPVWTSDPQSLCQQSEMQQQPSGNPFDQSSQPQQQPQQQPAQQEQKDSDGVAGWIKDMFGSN

The target of test [2] is T2, PBP1B E341A (E. coli, UniProt P02919 46-844, E341A).
T2 construct: PBP1B, E. coli, residues 46-844, made by mutagenesis of pDML924; source: E. coli BL21(DE3), purified (membrane extract, HisTrap, thrombin, HiTrap SP ion exchange)
T2 sequence (looked up): T1 sequence (looked up) with E296A

In test [3] the target is T3, PBP1B N112G (E. coli, UniProt P02919 46-844, N112G).
T3 construct: PBP1B, E. coli, residues 46-844, made by mutagenesis of pDML924; source: E. coli BL21(DE3), purified (membrane extract, HisTrap, thrombin, HiTrap SP ion exchange)
T3 sequence (looked up): T1 sequence (looked up) with N67G

Changes are numbered by the printed parent chain.

B1: CpoB (full length) (natural protein, E. coli, UniProt P45955 27-263, looked up)
chain: QAPISSVGSGSVEDRVTQLERISNAHSQLLTQLQQQLSDNQSDIDSLRGQIQENQYQLNQVVERQKQILLQIDSLSSGGAAAQSTSGDQSGAAASTTPTADAGTANAGAPVKSGNANTDYNAAIALVQDKSRQDDAMVAFQNFIKNYPDSTYLPNANYWLGQLNYNKGKKDDAAYYFASVVKNYPKSPKAADAMFKVGVIMQDKGDTAKAKAVYQQVISKYPGTDGAKQAQKRLNAM
notes: CpoB, E. coli; The coiled-coil construct begins at residue 27, so the purified 'full length' protein may lack the signal peptide (surmise); source: E. coli BL21(DE3), purified (HisTrap, Superdex 200), as in Gray et al. 2015
For B1, the Kd in test [1] was determined as 94 nM; in test [2], 77 nM; in test [3] it was 89 nM.
